These results are taken from US20220064648.

Where two headings read alike, the source gives them in different places.

The target in series [1] is SNAP25 full length (Homo sapiens) (UniProt P60880). As to conditions: W indole-dU, X amine-dU, direct ELISA signal. (In general: An ELISA detects its analyte on a solid surface through an enzyme-linked reagent.)
Series [2] concerns Negative control random peptide. The series can be described thus: ELONA. To be noted: W indole, X amine.

Sequence of SNAP25 full length (Homo sapiens) (P60880 whole entry): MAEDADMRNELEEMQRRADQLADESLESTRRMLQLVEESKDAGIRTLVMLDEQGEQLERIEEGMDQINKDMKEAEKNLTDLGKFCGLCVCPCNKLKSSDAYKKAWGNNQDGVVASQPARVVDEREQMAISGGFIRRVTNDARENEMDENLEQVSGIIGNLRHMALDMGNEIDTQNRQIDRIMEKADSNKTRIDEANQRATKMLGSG

In series [1] (Y phenol-dU [15,16,19,24,35,40,43,46], negative peptide 9), “TTTTTAACACGACGTTACTGTGGTCACCACAGGATGAGCTTGTCGTGCCATG [PEP 2.15]” gave a binding signal of 0.

With “TTTTTAAGCCCACAAAAGTTCGGGCAGCACAGGTCGCTGAGGTCGTGCCATG [PEP 4.14]”, in series [1] (Y phenol-dU [19,38 indole-dU, 20,34,46 phenol-dU, 43 amine-dU], negative peptide 15), the binding signal came out at 2.

Turning to “TTTTTAACACGACGTTACTGTGGTCACCACAGGATGAGGCTGTCGTGCCATG [PEP 2.17]”, the binding signal in series [1] (Y phenol-dU [phenol-dU@15,19,35,46, indole-dU@16,24, amine-dU@43], negative peptide 12) amounted to 2.

With “TTTTTAAGCCCACAAGCGTTCGGCTCTCATAGATCGTTGACGTGGGCCCATG [PEP 4.19]”, the binding signal in series [1] (Y phenol-dU [19,20,25,27,34,38], negative peptide 0) turned out to be 0.

Turning to “TTTTTAAGCCCACCTCACTGTGCAAGTCACAGGTCGGCACCGTGGGCCCATG [PEP 3.23]”, in series [1] (Y phenol-dU [15,19,34 (phenol-dU), 27 (amine-dU)], negative peptide 35), the binding signal worked out at 5.

Consider “TTTTTAAGCCCACGACACTGTGGCCAACACAGTACATGCATGTGGGCCCATG [PEP 3.07]”, for which, in series [1] (Y phenol-dU [phenol-dU@19], negative peptide 64), the binding signal amounted to 10.

In series [2] (Y phenol modified dU [19Y,24W,25X,34Y,40W,43X,46Y]), “TTTTTAACACGACAGCACTGTGGTTCGCGAACCTCAAGCTCGTCGTGCCATG [PEP 3.02]” displayed a binding signal of 59 ELISA signal.

Regarding “TTTTTAACACGACAGCACTGTGCACAGCACAGCTCAAGGGTGTGGGCCCATG [PEP 3.10]”, in series [1] (Y phenol-dU [phenol-dU@19,34], negative peptide 51), the binding signal worked out at 10.

“TTTTTAAGCCCACATAGGTTCGGTGGTCACAGTGTGGTGCGGTGGGCCCATG [PEP 2.16]” displayed a binding signal in series [1] (Y phenol-dU [15,19,20,24,27,35,38], negative peptide 5) of 4.

Take “TTTTTAACACGACACCACTGTGCCCACCACAGTTCACTGAAGTGGGCCCATG [PEP 3.14]”: the binding signal in series [1] (Y phenol-dU [19,34 (phenol-dU), 38 (indole-dU)], negative peptide 52) was found to be 8.

“TTTTTAACACGACGCCAGTTCGAAGGTCACAGTTATTTGGCGTCGTGCCATG [PEP 1.11]” returned a binding signal in series [1] (Y phenol-dU [19 indole-dU, 20 phenol-dU, 27 amine-dU, 34 phenol-dU, 36 indole-dU, 38 indole-dU, 43 amine-dU, 46 phenol-dU], negative peptide 11) of 4.

For “TTTTTAACACGACGTCGCTGTGGTCAACGAACAGATACAACGTCGTGCCATG [PEP 2.07]”, the binding signal in series [1] (Y phenol-dU [15,19,24,36,43,46], negative peptide 17) was determined as 8.

Regarding “TTTTTAAGCCCACGGGGCTGTGAGCAACGAACATTGGCACAGTCGTGCCATG [PEP 4.21]”, the binding signal in series [1] (Y phenol-dU [19,34,35,43,46], negative peptide 8) was determined as 0.

Take “TTTTTAACACGACTGCACTGTGAATCTCGAACGCATCGGGAGTCGTGCCATG [PEP 3.15]”: the binding signal in series [1] (Y phenol-dU [14,25,27,43 (amine-dU), 19,46 (phenol-dU), 36 (indole-dU)], negative peptide 39) was found to be 9.

On to “TTTTTAACACGACGTTACTGTGGTCATCACAGGATGAGCCTGTCGTGCCATG [PEP 2.18]”, for which the binding signal in series [1] (Y phenol-dU [phenol-dU@15,19,35,46, indole-dU@16,24, amine-dU@27,43], negative peptide 9) stood at 0.

“TTTTTAACACGACATCACTGTGGAAGACACAGGACGTGCGTGTCGTGCCATG [PEP 3.22]” showed a binding signal in series [1] (Y phenol-dU [15,19,46 (phenol-dU), 43 (amine-dU)], negative peptide 26) of 7.

Turning to “TTTTTAAGCCCACACGTGTTCGGATCGCACAGTTATTGGCAGTCGTGCCATG [PEP 4.20]”, the binding signal in series [1] (Y phenol-dU [17,19,20,25,34,36,43,46], negative peptide 3) worked out at 4.

For the sequence “TTTTTAAGCCCACCTGACTGTGGTGGGCACAGTTCGCCATCGTGGGCCCATG [PEP 1.14]”, the binding signal in series [1] (Y phenol-dU [15 phenol-dU, 19 phenol-dU, 24 indole-dU, 34 phenol-dU, 40 indole-dU], negative peptide 5) came out at 2.

Consider “TTTTTAAGCCCACGTTTGTTCGGTGGTCACAGCACGCCACGGTCGTGCCATG [PEP 2.08]”, for which, in series [1] (Y phenol-dU [15,16,17,19,20,24,27,43,46], negative peptide 9), the binding signal worked out at 8.

Take “TTTTTAACACGACATAGGTTCGCTGGTCACAGAATGTTGTGGTGGGCCCATG [PEP 2.09]”: in series [1] (Y phenol-dU [15,19,20,24,27,35,38,40], negative peptide 5), the binding signal was determined as 9.

Turning to “TTTTTAAGCCCACTTCACTGTGGCTCGCACAGGCCGATGGGGTCGTGCCATG [PEP 1.23]”, the binding signal in series [1] (Y phenol-dU [amine-dU @14,25,43, phenol-dU @15,19,46, indole-dU @38], negative peptide 0) is 0.

Consider “TTTTTAACACGACCATCCTGTGCCTCACGAACTCATTGCCCGTCGTGCCATG [PEP 1.02]”, for which the binding signal in series [2] (Y phenol modified dU [16,19,25,36,43,46]) amounted to 15 ELISA signal.

Sequence “TTTTTAAGCCCACTGGCCTGTGGTCAGCGAACTGTGCGCTGGTGGGCCCATG [PEP 2.10]” had a binding signal in series [1] (Y phenol-dU [14,19,24,35,40], negative peptide 2) of 7.

In series [1] (Y phenol-dU [19 (indole-dU), 20,46 (phenol-dU), 43 (amine-dU)], negative peptide 22), “TTTTTAAGCCCACCAGGGTTCGGGAGCCGAACGCCAGCACTGTCGTGCCATG [PEP 3.24]” yielded a binding signal of 5.

Sequence “TTTTTAACACGACATAGCTGTGACAGGCACAGGTCATGGGAGTCGTGCCATG [PEP 1.19]” returned a binding signal in series [1] (Y phenol-dU [phenol-dU @15,19,34,46, amine-dU @43], negative peptide 3) of 0.

For the sequence “TTTTTAAGCCCACCCGAGTTCGTCCAGCGAACCACGCGCGTGTCGTGCCATG [PEP 4.11]”, the binding signal in series [2] (Y phenol modified dU [19,20,23,43,46]) is 0 ELISA signal.

In turn, “TTTTTAACACGACGCTCCTGTGACAGCCGAACATCATTGGTGTCGTGCCATG [PEP 1.04]” returned a binding signal in series [1] (Y phenol-dU [16 indole-dU, 19 phenol-dU, 34 phenol-dU, 38 indole-dU, 43 amine-dU, 46 phenol-dU], negative peptide 4) of 5.

In turn, “TTTTTAAGCCCACATACGTTCGATGGTCACAGATTGGGCAAGTCGTGCCATG [PEP 2.02]” showed a binding signal in series [2] (Y phenol modified dU [15,19,20,24,27,34,35,43,46]) of 55 ELISA signal.

In turn, “TTTTTAAGCCCACTTGGCTGTGCACATCACAGAACAAGCAGGTGGGCCCATG [PEP 2.11]” showed a binding signal in series [1] (Y phenol-dU [14,15,19,27], negative peptide 2) of 0.

In turn, “TTTTTAACACGACGTTACTGTGGTCACCACAGGATGAGCCTGTCGTGCCATG [PEP 2.01]” displayed a binding signal in series [2] (Y phenol modified dU [15,16,19,24,35,43,46]) of 204 ELISA signal.

Take “TTTTTAAGCCCACGGGTGTTCGACAGACACAGCAATACATCGTGGGCCCATG [SNAP.03]”: the binding signal in series [2] (Y phenol modified dU [17,19,20,36,40]) stood at 21 ELISA signal.

For the sequence “TTTTTAACACGACAGCCCTGTGCAGGCCGAACGGCGTTGATGTCGTGCCATG [PEP 4.12]”, the binding signal in series [1] (Y phenol-dU [19,46 phenol-dU, 38 indole-dU, 43 amine-dU], negative peptide 3) came to 0.

In the case of “TTTTTAACACGACATATGTTCGACGGACACAGTGTGTGGCGGTCGTGCCATG [PEP 4.09]”, the binding signal in series [2] (Y phenol modified dU [15,17,19,20,35,43,46]) was 0 ELISA signal.

“TTTTTAACACGACTTGGGTTCGGAAGGCGAACCGCAGCAATGTGGGCCCATG [PEP 1.22]” came in with a binding signal in series [1] (Y phenol-dU [amine-dU @14, phenol-dU @15,20, indole-dU @19], negative peptide 2) of 8.

“TTTTTAAGCCCACATGCCTGTGGTCATCGAACATTGGGCCGGTCGTGCCATG [PEP 2.13]” gave a binding signal in series [1] (Y phenol-dU [15,19,24,27,34,35,43,46], negative peptide 11) of 0.

For the sequence “TTTTTAACACGACCATTCTGTGCCAGCCGAACTCCGTGCTGGTGGGCCCATG [PEP 4.08]”, the binding signal in series [1] (Y phenol-dU [16,17,40 indole-dU, 19 phenol-dU], negative peptide 5) was 9.

With “TTTTTAACACGACCGCCCTGTGGGCAACACAGGGATCTGCAGTCGTGCCATG [PEP 1.24]”, the binding signal in series [1] (Y phenol-dU [phenol-dU @19,46, indole-dU @36,38, amine-dU @43], negative peptide 9) was determined as 8.

Take “TTTTTAAGCCCACGCCAGTTCGGTCAACGAACTACGGTGATGTGGGCCCATG [PEP 4.17]”: the binding signal in series [1] (Y phenol-dU [19,20,24,38], negative peptide 0) was 0.

Turning to “TTTTTAACACGACTATTCTGTGAGTCTCGAACTGCGACAACGTGGGCCCATG [PEP 4.18]”, the binding signal in series [1] (Y phenol-dU [14,16,17,19,25,27], negative peptide 4) was 10.

“TTTTTAAGCCCACGGGTCTGTGGTCACCGAACGACGTGGCAGTGGGCCCATG [PEP 2.14]” gave a binding signal in series [1] (Y phenol-dU [17,19,24], negative peptide 7) of 2.

Turning to “TTTTTAACACGACGTGACTGTGAGAGGCACAGTTTGGGGGCGTGGGCCCATG [PEP 4.15]”, the binding signal in series [1] (Y phenol-dU [15,19,34,35 phenol-dU], negative peptide 7) was found to be 4.

Consider “TTTTTAAGCCCACGGTGCTGTGGAAGCCACAGTACAATGGAGTGGGCCCATG [PEP 4.22]”, for which the binding signal in series [1] (Y phenol-dU [16,19,38], negative peptide 3) worked out at 5.

“TTTTTAAGCCCACGGCCGTTCGGCCACCACAGTGTGGCAGCGTCGTGCCATG [PEP 4.13]”: the binding signal in series [1] (Y phenol-dU [19 indole-dU, 20,35,46 phenol-dU, 43 amine-dU], negative peptide 0) turned out to be 0.
